# US20250297216A1, “METHOD FOR PRODUCING MILK LIKE PRODUCTS” (SOCIETE DES PRODUITS NESTLE S.A., priority 2021, published 2025)
# B1: BMP4: bone morphogenetic protein 4, growth factor added to the culture medium (protein, UniProt P12644 293-408, looked up)
# Bone morphogenetic protein 4: SPKHHSQRARKKNKNCRRHSLYVDFSDVGWNDWIVAPPGYQAFYCHGDCPFPLADHLNSTNHAIVQTLVNSVNSSIPKACCVPTELSAISMLYLDEYDKVVLKNYQEMVVEGCGCR
# System: iPSCs derived mammary gland organoids
# Experiment: Flow cytometry quantification of mammary gland progenitor markers in 3D iPSC differentiation (42-day and shortened 31-day protocols)
# Format: cell-based, human
# Conditions: 20 ng/ml BMP4, 1 μM RA, single or combination, 42 days and 31 days protocols, compared to control condition
# Source text: Scheme summarizing different procedures for the generation of mammary gland progenitors in 42 days (a), using bone morphogenetic protein 4 (BMP4) (b), retinoic acid (RA) (c), combinations of BMP4 and RA (d) and their combination in shortened time-course (31 days) (e). The red boxes indicate the period of addition of BMP4 and/or RA.
molecule,measurement,value
B1,"expression of mammary gland progenitor markers (EpCAM, CD49f, MUC1, GATA3)",can induce the expression of mammary gland progenitor markers
